From the supplement of paper PMC9170038 come the findings set out here.

The subject of the data set is MS2 coat protein. Nature of the data set: apparent KD of MS2 coat protein; designed switch direction (-1 OFF switch, 1 ON switch): -1; higher = weaker reporter binding. Put shortly: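 Transcription of designed RNA switches on Illumina chips was done by stalled E. coli RNA polymerase. SNAP-549-labelled MS2 coat protein was then titrated in doubling steps from 0.7 or 1.5 nM to 3 µM, with steps of 0.8–1.5 h at the lowest and 10–20 min at the highest concentration. The per-design median over clusters of curve-fitted normalised fluorescence is reported as apparent KD.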

[1] abbreviates: Eterna round: R95, input ligand: FMN 200 uM.
[2] abbreviates: Eterna round: R95, input ligand: microRNA oligo, concentration not stated.
Where [3] appears, read: Eterna round: R95, input ligand: none.
Where [4] appears, read: input ligand: microRNA oligo, concentration not stated.

For the sequence “AAUGAUGAUGUGAGGAUAUACAUAGUUAGACCGUAGUAGAAGGCACAUGAGGAUCACCCAUGUAGAUGUUAGGU [JR_BME4_Sub003] (puzzle: Brourd's mod of Exclusion 4)”, the “apparent KD of MS2 coat protein” value reads like this: under setting [1], 21.5 nM; under setting [2], 12.9 nM; under setting [3], 14.4 nM.
For “UUAUUACAAGCAAGAUCCCACAUGAGGAUCACCCAUGUGCUCGUCUUAUAAGGUACAGUGACGAAAGUCACAGUACC [Sensor 3, v1 - 0] (puzzle: Sensor v3, turn-off variant 1)” the same measures were 29.4 nM, 795 nM and 22.3 nM.
On to “CUGGUGUGAGGAUAUCAGGACACGCCCGCGGACGUGUCAAAUGAGAAGGCACAUGAGGAUCACCCAUGUGGGAC [Onzausin] (puzzle: Exclusion 4)”, for which the “apparent KD of MS2 coat protein” value under setting [2] is 31.7 nM.
Consider “GGAUAAAAGGCAGGAUAUACGUAUCACUAACGAGUAGAAGGGCCACAUGAGGAUCACCCAUGUGAGUUCUCAAUAAGAAACACG [Prohibition 63 - Jieux - Exclusion NG 1] (Eterna round: R96, puzzle: Exclusion NG 1)”, for which the “apparent KD of MS2 coat protein” value (input ligand: FMN 200 uM) stood at 15.3 nM, the “apparent KD of MS2 coat protein” value under setting [4] is 10.7 nM and the “apparent KD of MS2 coat protein” value (input ligand: none) was found to be 14.2 nM.
“UGCGGUUGAGGAUAUACGUAGAAGUAGAUUCAUGUAAAACUACAUGAGGAUCACCCAUGUAGAAGGCAAUCGCU [Mat - Exclusion 2 - JL Mod - D40] (Eterna round: R97, puzzle: Exclusion 2)”: the “apparent KD of MS2 coat protein” value worked out at 193 nM (input ligand: FMN 200 uM) and 21.5 nM (input ligand: none).
As to “GCCAGAGCAGGAUAUUCAGUAUCACACAUGAGGAUCACCCAUGUCUAUCGAAAGAUAGAGGGAGAAGGGCUCUGGC [Mat - Exclusion 5 - Eli mod - D95] (puzzle: Exclusion 5)”, the “apparent KD of MS2 coat protein” value by setting is: under setting [1], 28.4 nM; under setting [2], 105 nM; under setting [3], 118 nM.
Take “GGCACACAUGAGGAUCACCCAUGUGAGGAUAUGGUGCGAUCGUCGAUAGACGAUAGCACCAGAAGGCACAUGCC [Mat - Exclusion 1 - Eli Mod - D5] (Eterna round: R97, puzzle: Exclusion 1)”: the “apparent KD of MS2 coat protein” value is, setting by setting: (input ligand: FMN 200 uM) 33.6 nM; (input ligand: none) 15.4 nM.
Regarding “CAGUACUGAGGAUAUACAUGAGGAUCACCCAUGUGAGCGAUACUAGUGAGGUCGAUUAGUAGAAGGCAGUACUG [Mat X3R4 m33] (Eterna round: R97, puzzle: Exclusion 3)”, the “apparent KD of MS2 coat protein” value is, setting by setting: (input ligand: FMN 200 uM) 353 nM; (input ligand: none) 32 nM.
For “GGAAGGUGAGGAUAUACUAAGCCGGAAACGGCAGGUGGGAGACAUGAGGAUCACCCAUGUAGAAGGCACGGAGA [AK-MS2ROC-r4-exclusion2-18] (Eterna round: R97, puzzle: Exclusion 2)” the same measures were 703 nM and 113 nM.
For “AAGUUACAUGAGGAUCACCCAUGUGAGGAUAUGAGUCAGUCACGGUGACGUGGCUGACUCAGAAGGCACAUAGG [JL-ex1-4.42 salish99 mod] (Eterna round: R97, puzzle: Exclusion 1)” the same measures were 256 nM and 77.1 nM.
Turning to “UAGAAACAUGAGGAUCACCCAUGUGAGGAUAUGAAAAAGAAAAGAAAAGAAAGAAGAAUCAGAAGGCACAAAGA [salish99-ex1_r3_083] (puzzle: Exclusion 1)”, the “apparent KD of MS2 coat protein” value is, setting by setting: under setting [1], 33.6 nM; under setting [2], 25.9 nM; under setting [3], 23.6 nM.
For “GAAAAGGUAGGAUAUACGAGAAGAAAGGGUAGAGAAGAAACACAUGAGGAUCACCCAUGUAGAAGGACCAAAAG [salish99_ex2_r3_099] (puzzle: Exclusion 2)” the same measures were 66.7 nM, 29.9 nM and 29.9 nM.
On to “ACCUCACAUGAGGAUCACCCAUGUCAGGAUAUCUUUUAUUACAGCAAUCCUGUCGCUGAGAGAAGGGACAUUAA [EX1 #25] (Eterna round: R97, puzzle: Exclusion 1)”, for which the “apparent KD of MS2 coat protein” value runs as follows: (input ligand: FMN 200 uM) 33.8 nM; (input ligand: none) 28.1 nM.
Take “AAUGAGCGAGGAUAUGCAACUGUAUGACCUACGUGUGCCAGACAUGAGGAUCACCCAUGUAGAAGGUGCUUUCC [Israte] (puzzle: Exclusion 2)”: the “apparent KD of MS2 coat protein” value under setting [2] came to 45.4 nM.
As for “GGAGCAAUGGAGGAUAUCAGGAGCGCUGCUUACUGAGAAGGCCGUACAUGAGGAUCACCCAUGUCUGGGUACGC [Eternabot (L1) Solution 21] (Eterna round: R97, puzzle: Exclusion 6)”, the “apparent KD of MS2 coat protein” value (input ligand: FMN 200 uM) was 176 nM and the “apparent KD of MS2 coat protein” value (input ligand: none) was found to be 167 nM.
For “GUGAUCUAUCAUGUAAUGAACAUGAGGAUCACCCAUGUAGGCAAGUUUUUUGCUCGUCACAUAAUAAGAUAGAUCAC [Antenna 19 - Jieux - Sensor, turn-off variant 1] (Eterna round: R97, puzzle: Sensor, turn-off variant 1)” the same measures were 14.3 nM and 13.2 nM.
The like results for “ACCUCACUUGAGGAUCACCCAAGUCAGGAUAUACUCGUUUGCCGCGCGACGCGGCAUUGUAGAAGGGACGGGCU [Orquisates] (Eterna round: R97, puzzle: Exclusion 1)” were, in that order, 32 nM and 18.8 nM.
As to “UGAUCAGACCGAGGAUAUAUAUGGAGGACCCACGUGAGUGGGUCCACUACAUGAGGAUCACCCAUGUAGAAGGCGGUCUGAUCU [JL ENG2 1.86] (Eterna round: R96, puzzle: Exclusion NG 2)”, the “apparent KD of MS2 coat protein” value runs as follows: (input ligand: FMN 200 uM) 29.5 nM; under setting [4], 9.64 nM; (input ligand: none) 13.3 nM.
On to “CAGUACUGAGGAUAUACAUGAGGAUCACCCAUGUGAUAAGGUUAGGAAACUAACCUAUGUAGAAGGCAGUACUG [Eli x3 4.08] (Eterna round: R97, puzzle: Exclusion 3)”, for which the “apparent KD of MS2 coat protein” value is, setting by setting: (input ligand: FMN 200 uM) 603 nM; (input ligand: none) 104 nM.
For “AAUAGUAAUAAGGAUAUCACUAGCUUCGGCUAGUGAGAAGGUAUUACAUGAGGAUCACCCAUGUGGUCAAUUAA [E6/4-A1] (Eterna round: R97, puzzle: Exclusion 6)” the same measures were 360 nM and 922 nM.
On to “CUCAUGUGAGGAUAUAGUACUUCUUCUAUUAUUAUUGAGUACUAGAAGGCACAUGAGGAUCACCCAUGUAGUAC [Ex4 - 3 - 44] (puzzle: Exclusion 4)”, for which the “apparent KD of MS2 coat protein” value under setting [2] amounted to 23.8 nM.
As to “AGAUCACAUGAGGAUCACCCAUGUGAGGAUAUGAUACUAUGUACUUCGGUACAUAGUAUCAGAAGGCAUGUGAA [Ex1-3: 74] (puzzle: Exclusion 1)”, under setting [2], the “apparent KD of MS2 coat protein” value was 42.7 nM.
As to “CCCACGUCAGGAUAUCUAAAGGUCCGAAAUAACGGGACUGCAGAGAAGGGACAUGAGGAUCACCCAUGUCCUCG [EX4 C.21] (Eterna round: R97, puzzle: Exclusion 4)”, the “apparent KD of MS2 coat protein” value (input ligand: FMN 200 uM) is 27 nM and the “apparent KD of MS2 coat protein” value (input ligand: none) stood at 18 nM.
Consider “AGCUGUGGCCGAGGAUAUCUAAUAUCCCUAACCGAAAUAUAAUCGGACAUGAGGAUCACCCAUGUAGAGAAGGCGGUCUCAGCA [Eli eng2 - 065] (Eterna round: R96, puzzle: Exclusion NG 2)”, for which the “apparent KD of MS2 coat protein” value reads like this: (input ligand: FMN 200 uM) 211 nM; under setting [4], 19.3 nM; (input ligand: none) 20.8 nM.
Take “GCUCAACAUGAGGAUCACCCAUGUCAGGAUAUGCGAAUUUCAUCAAAAGAUGAAAUUUGCAGAAGGGACUAAGC [Omei Ex1 A32] (Eterna round: R97, puzzle: Exclusion 1)”: the “apparent KD of MS2 coat protein” value reads like this: (input ligand: FMN 200 uM) 114 nM; (input ligand: none) 52.6 nM.
For “GCAGGUUAAGUCAGGAUAUACCUCUGGAAACAGAGGUAGAAGGGACAUGAGGAUCACCCAUGUUUCUCAUCUGC [Mod of Eli 3 - Jieux - Brourd's mod of Exclusion 4] (Eterna round: R97, puzzle: Brourd's mod of Exclusion 4)” the same measures were 85.6 nM and 19.2 nM.
Turning to “AUUUUGUCAGGAUAUGAGUAGUAGGACGAAAGUGUUAUUAUUUAGAAGGGACAUGAGGAUCACCCAUGUUUCUC [Bring Us a Shrubbery-02] (puzzle: Exclusion 4)”, the “apparent KD of MS2 coat protein” value under setting [2] is 12.2 nM.
For the sequence “GUCGUGCGGCUUUGCUGUACGAGUACAUGAGGAUCACCCAUGUAGGAUAUGGUUCGCUUUGCGUGCCAGAAGGGCGUGCGUUGG [Excl-NG3-LRO12] (Eterna round: R96, puzzle: Exclusion NG 3)”, the “apparent KD of MS2 coat protein” value was found to be 31.3 nM (input ligand: FMN 200 uM), 21.6 nM under setting [4] and 31.1 nM (input ligand: none).
Regarding “AAAUUAACUUAGGAUAUCGGCUGAAACAGCGUACGAGAAGGAAGUACAUGAGGAUCACCCAUGUGUCCCGUGCU [Teentibi] (Eterna round: R97, puzzle: Exclusion 6)”, the “apparent KD of MS2 coat protein” value is 68.6 nM (input ligand: FMN 200 uM) and 38.1 nM (input ligand: none).
On to “CGCAGACAUGAGGAUCACCCAUGUCAGGAUAUACCUCAUAGCACCAGCUUAUGUAAGGGUAGAAGGGACUUGGA [Eternabot (L1) Solution 81] (Eterna round: R97, puzzle: Exclusion 1)”, for which the “apparent KD of MS2 coat protein” value reads like this: (input ligand: FMN 200 uM) 86.1 nM; (input ligand: none) 56.8 nM.
The like results for “CCCGUGUGAGGAUAUACUCUAAGCAAUGUCAGUUGCUACAGGUAGAAGGCACAUGAGGAUCACCCAUGUCCCGG [EX4 C.24] (Eterna round: R97, puzzle: Exclusion 4)” were, in that order, 130 nM and 241 nM.
As for “GCCAUGUAAGGAUAUAACCGUCUUCAUGAACAAUGAGGAUGUUAGAAGGUACAUGAGGAUCACCCAUGUCCUUC [Eternabot (Original) Solution 6] (Eterna round: R97, puzzle: Exclusion 4)”, the “apparent KD of MS2 coat protein” value runs as follows: (input ligand: FMN 200 uM) 15.7 nM; (input ligand: none) 12.5 nM.
